The values below come from patent US5597711A, “Factor VIII binding domain of von Willebrand factor” (The Scripps Research Institute, priority 1995, dated 1997).

The target of one test is T1, vWF-FVIII complex (Homo sapiens, UniProt P00451).
T1 construct: The purification of FVIII from commercial factor VIII concentrate (Armour Pharmaceutical, Kankakee, IL), by immunoadsorbent chromatography; tissue Armour Pharmaceutical, Kankakee, Ill; host or cells: commercial factor VIII concentrate, both proteins purified in house by immunoadsorbent chromatography
T1 sequence (P00451 1668-2351 limits assumed): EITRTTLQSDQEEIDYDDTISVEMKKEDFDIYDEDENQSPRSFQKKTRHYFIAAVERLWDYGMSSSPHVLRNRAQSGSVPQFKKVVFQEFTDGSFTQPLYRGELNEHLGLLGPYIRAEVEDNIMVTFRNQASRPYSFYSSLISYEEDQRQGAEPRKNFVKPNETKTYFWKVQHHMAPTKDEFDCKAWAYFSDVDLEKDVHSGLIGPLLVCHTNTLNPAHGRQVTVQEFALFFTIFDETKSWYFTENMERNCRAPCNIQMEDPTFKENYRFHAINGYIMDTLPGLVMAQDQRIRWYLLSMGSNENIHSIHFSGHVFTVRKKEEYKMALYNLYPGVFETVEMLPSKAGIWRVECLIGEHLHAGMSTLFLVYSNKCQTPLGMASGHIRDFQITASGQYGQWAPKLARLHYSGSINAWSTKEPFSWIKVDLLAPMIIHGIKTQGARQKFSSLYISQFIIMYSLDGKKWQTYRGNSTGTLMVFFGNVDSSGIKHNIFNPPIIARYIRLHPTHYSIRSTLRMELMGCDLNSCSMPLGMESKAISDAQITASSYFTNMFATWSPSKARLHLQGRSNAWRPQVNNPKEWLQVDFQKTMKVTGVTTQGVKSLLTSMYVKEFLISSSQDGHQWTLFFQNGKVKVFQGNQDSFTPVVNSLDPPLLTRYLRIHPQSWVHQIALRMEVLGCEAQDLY
T1 sequence (P00451 20-759 partner limits assumed): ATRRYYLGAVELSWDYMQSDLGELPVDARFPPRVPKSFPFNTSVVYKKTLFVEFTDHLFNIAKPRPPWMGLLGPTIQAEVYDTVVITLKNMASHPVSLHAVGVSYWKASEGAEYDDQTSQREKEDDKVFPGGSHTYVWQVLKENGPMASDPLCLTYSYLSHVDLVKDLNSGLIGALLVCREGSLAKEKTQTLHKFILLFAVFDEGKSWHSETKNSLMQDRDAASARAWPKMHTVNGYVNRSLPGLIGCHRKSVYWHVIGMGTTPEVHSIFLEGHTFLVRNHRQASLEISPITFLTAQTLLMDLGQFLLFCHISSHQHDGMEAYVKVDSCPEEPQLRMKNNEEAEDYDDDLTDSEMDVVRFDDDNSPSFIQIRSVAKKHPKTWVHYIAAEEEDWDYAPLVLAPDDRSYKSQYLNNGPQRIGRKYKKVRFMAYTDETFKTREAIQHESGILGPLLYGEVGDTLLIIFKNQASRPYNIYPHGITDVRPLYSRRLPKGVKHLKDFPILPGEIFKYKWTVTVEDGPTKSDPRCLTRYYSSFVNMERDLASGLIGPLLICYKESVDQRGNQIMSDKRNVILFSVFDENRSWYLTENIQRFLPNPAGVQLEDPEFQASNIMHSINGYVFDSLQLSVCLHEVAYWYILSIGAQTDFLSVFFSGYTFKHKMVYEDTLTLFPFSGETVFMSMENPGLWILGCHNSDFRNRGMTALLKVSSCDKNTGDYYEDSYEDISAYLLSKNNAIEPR
Put plainly: Dissociation of FVIII from vWF immobilized on polystyrene beads by washing. The test is classed as binding. The protocol:
(§1) Competitive inhibition assay of FVIII binding to solid phase vWF: 50 μg of whole unreduced vWF in 1 ml of 0.01M PO4, 0.15M Nacl, 0.02% NaN3, pH 7.3 (PBS), was incubated with three 1/4 inch in diameter polystyrene beads (Pierce Chemical Company, Rockford, Ill.) per 16 mm in diameter tissue culture well for 2 hours at room temperature. The solution was removed and the wells and the beads were then blocked with 1 ml of PBS containing 0.05% Tween-20 and 3% human serum albumin for 1 hour at room temperature. The wells and the beads were stored in the blocking solution at 4° C. for 16 hours to 10 days before use. The wells and beads were then washed ×3 with PBS. 0.05% Tween-20 and incubated for 11/2 hours at room temperature with 1.3 μg of purified FVIII and 0-100 μg of the competitive ligand in 1 ml of 0.05M imidazole, 0.15M Nacl, 0.02% NaN3, pH 7.0, 3 mM CaCl. The beads then were washed ×5 with PBS 0.05% Tween-20 and incubated for 11/2 hour at room temperature with 1.5×10^6 cpm of ^125 I-monoclonal anti-FVIII antibody C2 (specific activity 3.8×10^9 cpm/mg), in 1 ml of PBS 0.05% Tween-20 containing 0.5% bovine gamma globulin. After incubation, the wells and beads were washed with PBS 0.05% Tween-20×2. The beads were then transferred to clean wells and washed an additional four times and separately counted.
54, 1093-1094 (1974), 10-20 mM EDTA according to Tran et al., Thromb. Haemostas. 50, 547-551 (1983) or 1-1.5M Nacl according to Weiss et al., Thromb. Diath. Haemorrh. 27, 212-219 (1972).

The target in test [1] is T2, FVIII binding to solid phase vWF (Homo sapiens, UniProt P00451).
T2 construct: The purification of FVIII from commercial factor VIII concentrate (Armour Pharmaceutical, Kankakee, IL), by immunoadsorbent chromatography; tissue Armour Pharmaceutical, Kankakee, Ill; host or cells: commercial factor VIII concentrate, both proteins purified in house by immunoadsorbent chromatography
T2 sequence (P00451 1668-2351 limits assumed): T1 sequence (P00451 1668-2351 limits assumed)
T2 sequence (P00451 20-759 partner limits assumed): T1 sequence (P00451 20-759 partner limits assumed)
Put plainly: Competitive inhibition assay of FVIII binding to solid phase vWF. The conditions noted are these: competitive ligand in fluid phase, 0-100 μg in 1 ml. The procedure: as §1, with “counted. […]” for “counted.”

Test [2] deals with T3, purified FVIII (Homo sapiens, UniProt P00451).
T3 construct: The purification of FVIII from commercial factor VIII concentrate (Armour Pharmaceutical, Kankakee, IL), by immunoadsorbent chromatography; tissue Armour Pharmaceutical, Kankakee, IL; host or cells: commercial factor VIII concentrate, purified in house by immunoadsorbent chromatography
T3 sequence (P00451 1668-2351 limits assumed): T1 sequence (P00451 1668-2351 limits assumed)
T3 sequence (P00451 20-759 partner limits assumed): T1 sequence (P00451 20-759 partner limits assumed)
In words: Crossed immunoelectrophoresis: complex formation of vWF or vWF fragments with FVIII. The test is classed as binding. The conditions noted are these: co-precipitation of 125I-labeled monoclonal anti-FVIII antibody. The procedure:
Two dimensional crossed immunoelectrophoresis of vWF was performed as described in Zimmerman et al., Immunoassays: Clinical Laboratory Techniques for the 1980's, pp. 339-349, Alan R. Liss, Inc., New York (1980), with the following modifications. Agarose was poured in a 1.5 cm strip at the bottom of a 10.2 cm×8.3 cm piece of Gelbond (FMC Corporation, Rockland, Me.). Purified vWF or fragments of vWF, FVIII, and ^125 I labeled monoclonal anti-FVIII antibody were mixed in the sample well and electrophoresed. A second gel containing 125-250 μl of rabbit serum containing polyclonal anti-vWF antibodies was then poured and the second dimension was electrophoresed at right angles to the first dimension. Autoradiographs were made of the gels and compared to Coomassie brilliant blue staining of the gels.

Test [3] concerns the target T3, purified FVIII. Put plainly: Binding of purified FVIII to vWF or SP fragment III immobilized on polystyrene beads. Conditions: protein adsorbed on polystyrene beads; detected with 125I-labeled monoclonal anti-FVIII antibody. The procedure:
as §1, with “counted. […]” for “counted.”

With `[Ca+2].[Cl-].[Cl-]` [CaCl2], the “dissociation of FVIII from vWF” value on vWF-FVIII complex (five washings with imidazole buffered saline containing 3 mM CaCl2) is given as “no FVIII dissociation”; on vWF-FVIII complex (five washings with imidazole buffered saline containing 0.25M CaCl2 at 37° C.), 70 ±4%.

Turning to `O=C(O)CN(CCN(CC(=O)O)CC(=O)O)CC(=O)O` [EDTA], at vWF-FVIII complex (five washings with imidazole buffered saline containing 20 mM EDTA), the “dissociation of FVIII from vWF” value came to 66 ±5%.

On to `[Cl-].[Na+]` [Nacl], for which the “dissociation of FVIII from vWF” value at vWF-FVIII complex (five washings with imidazole buffer containing 1.5M Nacl) came out at 86 ±1%.

Turning to “Reduced and alkylated vWF: vWF after reduction and alkylation”, in test [1], the “inhibition of FVIII binding to immobilized vWF (in words)” value was “no inhibitory effect”. In addition, in the test with purified FVIII [2], the “complex formation with FVIII” value is given as “unable to bind FVIII”.

In the case of “vWF: purified von Willebrand factor from commercial factor VIII concentrate”, in test [1], the “inhibition of FVIII binding to immobilized vWF (in words)” value is on record as “completely inhibit”. For the same molecule, in the test with purified FVIII [3], the “binding of purified FVIII to the immobilized protein” value was “bound”. Also, the “complex formation with FVIII” value in the test with purified FVIII [2] is given as “demonstrated complex formation”.
